Data set [1] concerns the target T1, GST-AGR2 (on GSH-Sepharose beads) (UniProt O95994 21-175). The data set is described as follows: flow cytometry bead binding; with K+; 1x PBS (137 mM NaCl, 2.7 mM KCl, 10 mM Na2HPO4, 2.0 mM KH2PO4), pH 7.4, 37 C, 45 min, 200 uL; K+ varied in Fig 4. Particulars: protein: recombinant; (pGEX-GST-AGR2); label: 3' FAM; intramolecular parallel G4.
The target in data set [2] is T1, GST-AGR2 (on GSH-Sepharose beads). The data set is described as follows: flow cytometry bead binding; 1x PBS (137 mM NaCl, 2.7 mM KCl, 10 mM Na2HPO4, 2.0 mM KH2PO4), pH 7.4, 37 C, 45 min, 200 uL; K+ varied in Fig 4. Particulars: protein: recombinant, (pGEX-GST-AGR2). For orientation: Flow cytometry measures light scatter and fluorescence of single cells or particles in a stream.

Data set [3] concerns the target Thrombin (UniProt P00734;P00734 328-363;364-622). The data set is described as follows: SA-bead flow cytometry (allosteric beacon); 500 nM; SA beads; 1x PBS (137 mM NaCl, 2.7 mM KCl, 10 mM Na2HPO4, 2.0 mM KH2PO4), pH 7.4, 37 C, 45 min, 200 uL; K+ varied in Fig 4.
Data set [4] deals with T1, GST-AGR2 (on GSH-Sepharose beads). The data set is described as follows: SA-bead flow cytometry (allosteric beacon); SA beads; 100 nM AGR2 detected; 1x PBS (137 mM NaCl, 2.7 mM KCl, 10 mM Na2HPO4, 2.0 mM KH2PO4), pH 7.4, 37 C, 45 min, 200 uL; K+ varied in Fig 4. The conditions noted are these: protein: recombinant; (pGEX-GST-AGR2); label: 3' FAM; hairpin.
The target of data set [5] is Streptavidin (SA beads) (UniProt P22629 25-183). The experiment in a line: SA-bead flow cytometry (allosteric beacon); with AGR2; 1x PBS (137 mM NaCl, 2.7 mM KCl, 10 mM Na2HPO4, 2.0 mM KH2PO4), pH 7.4, 37 C, 45 min, 200 uL; K+ varied in Fig 4. The conditions noted are these: protein: commercial; chain copies: 4; label: 3' FAM; hairpin.
Sequence of Streptavidin (SA beads) (P22629 25-183): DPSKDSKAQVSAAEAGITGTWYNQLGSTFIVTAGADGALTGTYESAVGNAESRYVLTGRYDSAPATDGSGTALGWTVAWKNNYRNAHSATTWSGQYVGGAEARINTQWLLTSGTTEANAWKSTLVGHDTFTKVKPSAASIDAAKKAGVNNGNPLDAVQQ
Data set [6] addresses GST (on GSH-Sepharose beads) (UniProt P08515 1-218). The data set is described as follows: flow cytometry bead binding; 1x PBS (137 mM NaCl, 2.7 mM KCl, 10 mM Na2HPO4, 2.0 mM KH2PO4), pH 7.4, 37 C, 45 min, 200 uL; K+ varied in Fig 4. The conditions noted are these: protein: recombinant; chain copies: 2; label: FAM.

The results in this text go back to paper PMC3460915, “Identification, Characterization and Application of a G-Quadruplex Structured DNA Aptamer against Cancer Biomarker Protein Anterior Gradient Homolog 2”.

T1 sequence (O95994 21-175): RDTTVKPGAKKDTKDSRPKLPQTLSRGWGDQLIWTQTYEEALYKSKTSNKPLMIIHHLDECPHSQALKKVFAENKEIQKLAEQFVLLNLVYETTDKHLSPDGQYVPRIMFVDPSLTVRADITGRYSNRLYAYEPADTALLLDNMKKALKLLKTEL
Sequence of GST (on GSH-Sepharose beads) (P08515 whole entry): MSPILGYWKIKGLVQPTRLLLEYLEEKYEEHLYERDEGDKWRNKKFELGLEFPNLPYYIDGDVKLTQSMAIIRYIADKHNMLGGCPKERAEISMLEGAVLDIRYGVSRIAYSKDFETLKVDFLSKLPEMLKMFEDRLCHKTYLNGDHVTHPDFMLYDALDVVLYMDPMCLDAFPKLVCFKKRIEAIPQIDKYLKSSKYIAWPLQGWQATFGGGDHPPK

As for CGGGTGGGAGTTGTGGGGGGGGGTGGGAGGGTT (structured_DNA) [C14B1], the Kd in data set [1] was found to be 6.2 ± 1.9 nM; in data set [2] (label: 3' FAM, intramolecular parallel G4) it was 19.1 ± 5.1 nM.

B1: C14C (ssDNA)
DNA: TCTCGGACGCGTGTGGTCGGCGTTGGGTGGGGGTGGCGGGGGTAGGGTGGTAGGTCGCTAAAATGCTCGCTGCCTGGCCCTAGAGTG
As for B1, the dissociation constant Kd in data set [2] (label: FAM) stood at 44.6 ± 7 nM.

B2: AGR2-aMB (structured_DNA)
DNA: CGACGCACCGATCGCAGGTTCGGGATTTTCGGGTGGGAGTTGTGGGGGGGGGTGGGAGGGTT
On to B2, for which the binding result in data set [3] is recorded as “no binding”; in data set [4], “binds”; in data set [5], “binds”.

B3: C14B (ssDNA)
DNA: TCTCGGACGCGTGTGGTCGGGTGGGAGTTGTGGGGGGGGGTGGGAGGGTTCTTTGTTTGATCTTTCTCGCTGCCTGGCCCTAGAGTG
B3: in data set [6], the binding result is recorded as “no binding”. Besides, the Kd in data set [2] (label: FAM) was 13.1 ± 7.2 nM.

B4: C14A (ssDNA)
DNA: TCTCGGACGCGTGTGGTCGGGGGGGCGGGGGTTGGGTGGTGGCTTCATTTTGTTTCACGTCGTCCTCGCTGCCTGGCCCTAGAGTG
As for B4, the dissociation constant (Kd) in data set [2] (label: FAM) turned out to be 20.9 ± 5.2 nM.

B5: C14B0 (ssDNA)
DNA: CGGGTGGGAGTTGTGGGGGGGGGTGGGAGGGTTCTTTGTTTGATCTTTCTCGCTGCCTGGCCCTAGAGTG
In the case of B5, in data set [2] (label: FAM), the dissociation constant Kd was 8.5 ± 3.6 nM.

B6: C14D (ssDNA)
DNA: TCTCGGACGCGTGTGGTCGGTGCATTCTTCTGTTCTTTTAGTGTTTTGTGTTGTATGTTCTTATCCTCGCTGCCTGGCCCTAGAGTG
For B6, the Kd in data set [2] (label: FAM) stood at 48.4 ± 15.6 nM.

A word on the Kd: it is the constant that tells how readily two partners part at equilibrium.
